According to PMC2825239:

Substrate: O=C1C[C@@H](c2ccc(O)cc2)Oc2cc(O)cc(O)c21
Experiment: cells, lysate or membranes
Details: NADPH 1.0 mM, 0.1 M sodium phosphate pH 7.0, 27°C (general assay conditions)

B1: CYP75A31 (Solanum lycopersicum) (protein)
chain: MALRINELFVAAIIYIIVHIIISKLITTVRERGRRLPLPPGPTGWPVIGALPLLGSMPHVALAKMAKKYGPIMYLKVGTCGMVVASTPNAAKAFLKTLDINFSNRPPNAGATHLAYNAQDMVFAPYGPRWKLLRKLSNLHMLGGKALENWANVRANELGHMLKSMFDASQDGECVVIADVLTFAMANMIGQVMLSKRVFVEKGVEVNEFKNMVVELMTVAGYFNIGDFIPKLAWMDIQGIEKGMKNLHKKFDDLLTKMFDEHEATSNERKENPDFLDVVMANRDNSEGERLSTTNIKALLLNLFTAGTDTSSSVIEWALAEMMKNPKIFKKAQQEMDQVIGKNRRLIESDIPNLPYLRAICKETFRKHPSTPLNLPRVSSEPCTVDGYYIPKNTRLSVNIWAIGRDPDVWENPLEFTPERFLSGKNAKIEPRGNDFELIPFGAGRRICAGTRMGIVVVEYILGTLVHSFDWKLPNNVIDINMEESFGLALQKAVPLEAMVTPRLSLDVYRC
- Km (ATR1 reductase): 1.20 µM

B2: CYP75A8 (Catharanthus roseus) (protein)
chain: MALEKLVLFDFLAAISILILVQKFIQIVFLRSSSRIRLPPGPKGWPIIGALPYLGTMPHSILANMAKKYGPIMYLKLGTNGMVVASTPDAVKAFLRTLDMNFSNRPIDAGATHLAYNAQDMVFAHYGPKWKLLRKLSNLHMLGGKALENWSNVRATELGYMLQAMYESSRKGETVVVPEMLTYAMANMIGQVILSRRVFVTKSLESNEFKDMVVELMTTAGYFNIGDFIPSIAWMDLQGIERGMKRLHKKFDALLTKMLEEHKSSSHKRKEKPDFLDYVLANRDNSEGERLTTTNIKALLLNLFTAGTDTSSSVIEWAISEMLKNPTILKRAQEEMDQVIGRNRRLMESDIPKLPYLQAICKETFRKHPSTPLNLPRIAQKDCQVNGYYIPKGTRLSVNIWAIGRDPNVWENPLEFNPDRFLSGKMAKIEPRGNDFELIPFGAGRRICAGTRMGIVLVEYILGTLVHSFDWKLPFDDINELNMDESFGLALQKAVPLVAMVSPRLPINAYSP
- Km (ATR1 reductase yeast expression system, assay conditions not separately printed): 0.83 µM
